From the supplement of paper PMC9112550, “Optimization of the antimicrobial peptide Bac7 by deep mutational scanning” (BMC Biology, 2022)

tested on: Escherichia coli TOP10; experiment: shrunken log2 fold change of peptide-encoding DNA abundance (4.5 h post-induction vs induction); higher = less antimicrobial activity (less host growth inhibition); details: time post-induction: 4.5 h; library: site-saturation at positions 5, 18, 19, 20
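Further: peptides expressed intracellularly from a pBAD plasmid library in pooled LB shake-flask culture, induced with 0.3% L-arabinose, DNA abundance read by NGS, three biological replicates, DESeq2 with apeglm shrinkage.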

Sequence | shrunken log2 fold change
RRIRCRPPRLPRPRPRPYNLPRP | -0.986
RRIRIRPPRLPRPRPRPFVIPRP | 0.0556
RRIRERPPRLPRPRPRPVYEPRP | -0.445
RRIRIRPPRLPRPRPRPYEIPRP | -0.811
RRIRRRPPRLPRPRPRPNQDPRP | 0.125
RRIRNRPPRLPRPRPRPQGDPRP | 4.25
RRIRHRPPRLPRPRPRPSRQPRP | 0.212
RRIRWRPPRLPRPRPRPENRPRP | -0.0139
RRIRERPPRLPRPRPRPCNEPRP | -1.12
RRIRIRPPRLPRPRPRPEWMPRP | -0.0985
RRIRCRPPRLPRPRPRPFMEPRP | -0.996
RRIRTRPPRLPRPRPRPHWIPRP | -0.569
RRIRARPPRLPRPRPRPPMQPRP | 0.781
RRIRQRPPRLPRPRPRPFCWPRP | 0.42
RRIRLRPPRLPRPRPRPNKDPRP | -0.683
RRIRWRPPRLPRPRPRPNYGPRP | -0.281
RRIRDRPPRLPRPRPRPDWRPRP | 0.183
RRIRWRPPRLPRPRPRPESIPRP | 0.2
RRIRIRPPRLPRPRPRPGGWPRP | 0.56
RRIRFRPPRLPRPRPRPTSPPRP | 0.194
RRIRRRPPRLPRPRPRPILPPRP | 0.177
RRIRARPPRLPRPRPRPKWEPRP | 0.0262
RRIRFRPPRLPRPRPRPLFTPRP | -0.239
RRIRGRPPRLPRPRPRPMSDPRP | 0.34
RRIRSRPPRLPRPRPRPNPAPRP | -0.0743

Sequence | shrunken log2 fold change
RRIRHRPPRLPRPRPRPNIAPRP | -0.112
RRIRERPPRLPRPRPRPFFCPRP | -0.0755
RRIRQRPPRLPRPRPRPYLRPRP | -0.176
RRIRHRPPRLPRPRPRPFCEPRP | -0.394
RRIRCRPPRLPRPRPRPKNWPRP | 0.331
RRIRCRPPRLPRPRPRPDVAPRP | 0.298
RRIRERPPRLPRPRPRPSQSPRP | -0.346
RRIRKRPPRLPRPRPRPKKIPRP | 0.431
RRIRKRPPRLPRPRPRPAHWPRP | 0.719
RRIRMRPPRLPRPRPRPEVTPRP | 0.053
RRIRYRPPRLPRPRPRPSAPPRP | -0.353
RRIRARPPRLPRPRPRPCFQPRP | 0.105
RRIRHRPPRLPRPRPRPLYSPRP | -0.792
RRIRGRPPRLPRPRPRPTLHPRP | 0.896
RRIRGRPPRLPRPRPRPSGCPRP | 0.477
RRIRLRPPRLPRPRPRPRIGPRP | 0.0176
RRIRTRPPRLPRPRPRPQFFPRP | -0.11
RRIRMRPPRLPRPRPRPFSTPRP | -0.0159
RRIRFRPPRLPRPRPRPCFQPRP | -0.227
RRIRTRPPRLPRPRPRPVENPRP | -0.146
RRIRIRPPRLPRPRPRPICWPRP | 0.307
RRIRARPPRLPRPRPRPILQPRP | 0.0186
RRIRYRPPRLPRPRPRPMEAPRP | -0.163
RRIRTRPPRLPRPRPRPHEGPRP | -0.00663
RRIRGRPPRLPRPRPRPAGLPRP | 0.479

Sequence | shrunken log2 fold change
RRIRDRPPRLPRPRPRPFRDPRP | -0.00232
RRIRYRPPRLPRPRPRPIIWPRP | -0.152
RRIRFRPPRLPRPRPRPHYQPRP | -0.0104
RRIRQRPPRLPRPRPRPVRWPRP | 0.428
RRIRFRPPRLPRPRPRPFKEPRP | -0.173
RRIRTRPPRLPRPRPRPMSYPRP | 0.0494
RRIRGRPPRLPRPRPRPHDPPRP | 0.546
RRIRNRPPRLPRPRPRPQEDPRP | 0.00256
RRIRERPPRLPRPRPRPGWYPRP | -0.0987
RRIRRRPPRLPRPRPRPRSDPRP | 0.323
RRIRGRPPRLPRPRPRPEIIPRP | 1.5
RRIRYRPPRLPRPRPRPQIVPRP | -0.342
RRIRNRPPRLPRPRPRPLFMPRP | -0.235
RRIRTRPPRLPRPRPRPGYGPRP | -0.139
RRIRARPPRLPRPRPRPRADPRP | 0.924
RRIRPRPPRLPRPRPRPDYVPRP | -0.343
RRIRTRPPRLPRPRPRPQRRPRP | -0.0307
RRIRCRPPRLPRPRPRPHYHPRP | -0.755
RRIRYRPPRLPRPRPRPKVLPRP | -0.04
RRIRDRPPRLPRPRPRPRALPRP | 0.226
RRIRCRPPRLPRPRPRPEAYPRP | -0.0117
RRIRYRPPRLPRPRPRPDKPPRP | -0.0375
RRIRPRPPRLPRPRPRPIDNPRP | -0.15
RRIRQRPPRLPRPRPRPMHRPRP | -0.0558
RRIRCRPPRLPRPRPRPDKVPRP | -0.224

Sequence | shrunken log2 fold change
RRIRVRPPRLPRPRPRPVNLPRP | -0.322
RRIRPRPPRLPRPRPRPNFMPRP | 0.109
RRIRWRPPRLPRPRPRPQAYPRP | 0.0869
RRIRARPPRLPRPRPRPHLPPRP | 0.0943
RRIRPRPPRLPRPRPRPHQLPRP | 0.0761
RRIRHRPPRLPRPRPRPEGRPRP | -0.114
RRIRWRPPRLPRPRPRPWSVPRP | -0.174
RRIRCRPPRLPRPRPRPPYVPRP | -0.455
RRIRIRPPRLPRPRPRPELGPRP | 0.0694
RRIRDRPPRLPRPRPRPETTPRP | 0.0986
RRIRLRPPRLPRPRPRPWMPPRP | -0.0741
RRIRPRPPRLPRPRPRPDDWPRP | 0.247
RRIRRRPPRLPRPRPRPKNYPRP | -0.177
RRIRGRPPRLPRPRPRPSWCPRP | 0.013
RRIRQRPPRLPRPRPRPKHTPRP | -0.224
RRIRYRPPRLPRPRPRPKSPPRP | 0.0245
RRIRLRPPRLPRPRPRPIGGPRP | 0.0938
RRIRKRPPRLPRPRPRPDEEPRP | 2.82
RRIRGRPPRLPRPRPRPSHPPRP | 0.372
RRIRERPPRLPRPRPRPHTMPRP | -0.0656
RRIRFRPPRLPRPRPRPFPTPRP | -0.0582
RRIRCRPPRLPRPRPRPWFPPRP | -0.699
RRIRSRPPRLPRPRPRPGGFPRP | 0.245
RRIRMRPPRLPRPRPRPVLDPRP | 0.331
RRIRPRPPRLPRPRPRPSSSPRP | -0.134

Sequence | shrunken log2 fold change
RRIRFRPPRLPRPRPRPDDTPRP | 0.0516
RRIRHRPPRLPRPRPRPSFMPRP | -0.699
RRIRYRPPRLPRPRPRPYCQPRP | -0.465
RRIRDRPPRLPRPRPRPYFVPRP | -0.362
RRIRVRPPRLPRPRPRPVCLPRP | 0.619
RRIRGRPPRLPRPRPRPTMNPRP | 0.709
RRIRRRPPRLPRPRPRPDMDPRP | -0.108
RRIRVRPPRLPRPRPRPMICPRP | -0.0606
RRIRARPPRLPRPRPRPENPPRP | 1.14
RRIRDRPPRLPRPRPRPSDQPRP | 0.204
RRIRFRPPRLPRPRPRPYVSPRP | -0.438
RRIRERPPRLPRPRPRPLKMPRP | -0.175
RRIRRRPPRLPRPRPRPPITPRP | 0.13
RRIRSRPPRLPRPRPRPCQTPRP | 0.131
RRIRMRPPRLPRPRPRPTNMPRP | -0.0158
RRIRERPPRLPRPRPRPDYEPRP | -0.202
RRIRERPPRLPRPRPRPRLRPRP | 0.25
RRIRMRPPRLPRPRPRPAKQPRP | 1.12
RRIRERPPRLPRPRPRPLDCPRP | -0.161
RRIRVRPPRLPRPRPRPSYAPRP | -0.477
RRIRNRPPRLPRPRPRPTIGPRP | -0.00466
RRIRMRPPRLPRPRPRPSKPPRP | 0.0519
RRIRRRPPRLPRPRPRPAFVPRP | 0.36
RRIRQRPPRLPRPRPRPMNFPRP | -0.01
RRIRGRPPRLPRPRPRPRWGPRP | 0.852
